According to patent publication US20100227805A1 (RAPPAPORT FAMILY INSTITUTE FOR RESEARCH IN THE MEDICAL …, published 2010):

Experiments:
[1] = biological target: T1, human MIP-1β (CCL4) (human, UniProt P13236 24-92); assay: direct ELISA, chemokine coated at 10 ng/well, fusion at 1 µg/well
T1 construct: Bought recombinant chemokine; also called human CCL4
T1 sequence (looked up): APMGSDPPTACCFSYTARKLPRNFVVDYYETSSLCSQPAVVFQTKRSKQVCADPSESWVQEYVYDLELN
Method: (§1) The binding specificity of the murine CCR5-IgG soluble receptor to various commercially available human recombinant chemokines (R&D Systems, Minneapolis, N. Mex.) MIP-1α (CCL3), MIP-1β (CCL4) and RANTES as well as the murine recombinant chemokines (R&D Systems, Minneapolis, N. Mex.) MIP-1α (CCL3) and ITAC was determined by direct ELISA as follows: 96-well ELISA plates (Nunc, Roskilde, Denmark) were coated with 10 ng/well of human CCL3, CCL4, CCL5, as well as murine CCL3 or ITAC, and blocked with 1% BSA in PBS. Wells were washed and incubated with 1 μg/well CCR5(EC2)-IgG overnight. Wells were washed and the presence of CCR5(EC2)-IgG was detected with goat anti mouse IgG-HRP antibody (Jackson ImmunoResearch lot no. 58734). Results are shown as O.D. reading at 450 nm.

[2] = biological target: T2, human RANTES (CCL5) (human, UniProt P13501 24-91); assay: as above
T2 construct: Bought recombinant chemokine; also called human CCL5
T2 sequence (looked up): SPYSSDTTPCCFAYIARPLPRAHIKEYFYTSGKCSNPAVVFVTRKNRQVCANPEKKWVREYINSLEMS
Method: as §1

[3] = biological target: T3, murine MIP-1α (CCL3) (murine, UniProt P10855 24-92); assay: direct ELISA, chemokine coated at 10 ng/well, fusion at 10-1000 ng/ml
T3 construct: Bought recombinant chemokine; also called mCCL3; murine CCL3
T3 sequence (looked up): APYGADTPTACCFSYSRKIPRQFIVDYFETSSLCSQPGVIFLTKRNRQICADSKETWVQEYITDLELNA
Method: (§2) The binding specificity of the different extracellular domains (EC1, EC2, EC3 and N) of the murine CCR5-IgG fusion proteins to various commercially available murine recombinant […] chemokines (R&D Systems, Minneapolis, N. Mex. including MIP-1α (CCL3), (CCL4) and RANTES (CCL5) was determined by direct ELISA as follows: 96-well ELISA plates (Nunc, Roskilde, Denmark) were coated with 10 ng/well of murine CCL3, CCL4 or […] and blocked with 1% BSA in PBS. Wells were washed and incubated with 10 ng/ml, 100 ng/ml or 1000 ng/ml CCR5-IgG (EC1, EC2, EC3, N) at a concentration overnight. Wells were washed and the presence of CCR5-IgG was detected with goat anti mouse IgG-HRP (Jackson ImmunoResearch lot no. 58734). Results are shown as O.D. reading at 450 nm.

[4] = biological target: T4, murine RANTES (CCL5) (murine, UniProt P30882 24-91); assay: as above
T4 construct: Bought recombinant chemokine; also called mCCL5; murine CCL5
T4 sequence (P30882 24-91 limits assumed): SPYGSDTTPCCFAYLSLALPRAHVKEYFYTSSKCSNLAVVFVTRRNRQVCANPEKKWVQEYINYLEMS
Method: as §2

[5] = biological target: T5, murine MIP-1β (CCL4) (murine, UniProt P14097 24-92); assay: as above
T5 construct: Bought recombinant chemokine; also called mCCL4; murine CCL4
T5 sequence (looked up): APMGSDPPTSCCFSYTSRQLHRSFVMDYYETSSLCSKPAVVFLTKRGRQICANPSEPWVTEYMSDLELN
Method: as §2

Measured: binding result

B1: mCCR5(EC2)-IgG (Fc fusion)
chain: DAAQPARRARRTKLRSQKEGFHYTCSPHFPHTQYHFWKSFQTLKLEVPRDCGCKPCICTVPEVSSVFIFPPKPKDVLTITLTPKVTCVVVDISKDDPEVQFSWFVDDVEVHTAQTQPREEQFNSTFRSVSELPIMHQDCLNGKEFKCRVNSAAFPAPIEKTISKTKGRPKAPQVYTIPPPKEQMAKDKVSLTCMITDFFPEDITVEWQWNGQPAENYKNTQPIMDTDGSYFVYSKLNVQKSNWEAGNTFTCSVLHEGLHNHHTEKSLSHSPGKGPEQKLISEEDLNSAVDHHHHHH
notes: It may include the vector's Ig-kappa leader and tags; also called murine CCR5(EC2)-IgG; CCR5-Ig(E2)
binds: [1] | [2] | [3] | [4] | [5]
